IntAct's records for PubMed 20802463

Biological target: rfa2_human RPA2 (UniProt P15927)
Sequence (P15927 whole entry): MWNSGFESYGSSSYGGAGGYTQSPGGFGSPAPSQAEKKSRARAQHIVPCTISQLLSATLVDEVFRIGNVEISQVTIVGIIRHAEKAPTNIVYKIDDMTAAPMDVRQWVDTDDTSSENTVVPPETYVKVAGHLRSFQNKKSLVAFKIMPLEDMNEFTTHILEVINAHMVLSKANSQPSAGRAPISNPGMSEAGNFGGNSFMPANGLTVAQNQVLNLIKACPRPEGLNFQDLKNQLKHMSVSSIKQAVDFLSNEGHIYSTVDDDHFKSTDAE

Row | effect of a mutation on the interaction | Substance
1 | disrupting interaction | Bifunctional 3'-5' exonuclease/ATP-dependent helicase WRN (Homo sapiens), Q14191 T1152A
2 | disrupting interaction | Bifunctional 3'-5' exonuclease/ATP-dependent helicase WRN (Homo sapiens), Q14191 S991A
3 | disrupting interaction | Bifunctional 3'-5' exonuclease/ATP-dependent helicase WRN (Homo sapiens), Q14191 S1256A

Biological target: rfa2_human RPA2 (UniProt P15927)
Remark: another data set of the same source

Row | effect of a mutation on the interaction | Substance
4 | disrupting interaction | Bifunctional 3'-5' exonuclease/ATP-dependent helicase WRN (Homo sapiens), Q14191 S1058A
5 | disrupting interaction | Bifunctional 3'-5' exonuclease/ATP-dependent helicase WRN (Homo sapiens), Q14191 S1141A
6 | disrupting interaction | Bifunctional 3'-5' exonuclease/ATP-dependent helicase WRN (Homo sapiens), Q14191 S1292A
